Sequences and labels used below:
B1: mCherry-KANK1 wild type (human full-length KANK1) [human] / GFP-talin1-cBAK [mouse] (parent complex)
chain 1: MAHTTKVNGSASGKAGDILSGDQDKEQKDPYFVETPYGYQLDLDFLKYVDDIQKGNTIKRLNIQKRRKPSVPCPEPRTTSGQQGIWTSTESLSSSNSDDNKQCPNFLIARSQVTSTPISKPPPPLETSLPFLTIPENRQLPPPSPQLPKHNLHVTKTLMETRRRLEQERATMQMTPGEFRRPRLASFGGMGTTSSLPSFVGSGNHNPAKHQLQNGYQGNGDYGSYAPAAPTTSSMGSSIRHSPLSSGISTPVTNVSPMHLQHIREQMAIALKRLKELEEQVRTIPVLQVKISVLQEEKRQLVSQLKNQRAASQINVCGVRKRSYSAGNASQLEQLSRARRSGGELYIDYEEEEMETVEQSTQRIKEFRQLTADMQALEQKIQDSSCEASSELRENGECRSVAVGAEENMNDIVVYHRGSRSCKDAAVGTLVEMRNCGVSVTEAMLGVMTEADKEIELQQQTIESLKEKIYRLEVQLRETTHDREMTKLKQELQAAGSRKKVDKATMAQPLVFSKVVEAVVQTRDQMVGSHMDLVDTCVGTSVETNSVGISCQPECKNKVVGPELPMNWWIVKERVEMHDRCAGRSVEMCDKSVSVEVSVCETGSNTEESVNDLTLLKTNLNLKEVRSIGCGDCSVDVTVCSPKECASRGVNTEAVSQVEAAVMAVPRTADQDTSTDLEQVHQFTNTETATLIESCTNTCLSTLDKQTSTQTVETRTVAVGEGRVKDINSSTKTRSIGVGTLLSGHSGFDRPSAVKTKESGVGQININDNYLVGLKMRTIACGPPQLTVGLTASRRSVGVGDDPVGESLENPQPQAPLGMMTGLDHYIERIQKLLAEQQTLLAENYSELAEAFGEPHSQMGSLNSQLISTLSSINSVMKSASTEELRNPDFQKTSLGKITGNYLGYTCKCGGLQSGSPLSSQTSQPEQEVGTSEGKPISSLDAFPTQEGTLSPVNLTDDQIAAGLYACTNNESTLKSIMKKKDGNKDSNGAKKNLQFVGINGGYETTSSDDSSSDESSSSESDDECDVIEYPLEEEEEEEDEDTRGMAEGHHAVNIEGLKSARVEDEMQVQECEPEKVEIRERYELSEKMLSACNLLKNTINDPKALTSKDMRFCLNTLQHEWFRVSSQKSAIPAMVGDYIAAFEAISPDVLRYVINLADGNGNTALHYSVSHSNFEIVKLLLDADVCNVDHQNKAGYTPIMLAALAAVEAEKDMRIVEELFGCGDVNAKASQAGQTALMLAVSHGRIDMVKGLLACGADVNIQDDEGSTALMCASEHGHVEIVKLLLAQPGCNGHLEDNDGSTALSIALEAGHKDIAVLLYAHVNFAKAQSPGTPRLGRKTSPGPTHRGSFD
chain 2: MVALSLKISIGNVVKTMQFEPSTMVYDACRMIRERIPEALAGPPNDFGLFLSDDDPKKGIWLEAGKALDYYMLRNGDTMEYRKKQRPLKIRMLDGTVKTIMVDDSKTVTDMLMTICARIGITNHDEYSLVRELMEEKKDEGTGTLRKDKTLLRDEKKMEKLKQKLHTDDELNWLDHGRTLREQGVEEHETLLLRRKFFYSDQNVDSRDPVQLNLLYVQARDDILNGSHPVSFDKACEFAGFQCQIQFGPHNEQKHKAGFLDLKDFLPKEYVKQKGERKIFQAHKNCGQMSEIEAKVRYVKLARSLKTYGVSFFLVKEKMKGKNKLVPRLLGITKECVMRVDEKTKEVIQEWSLTNIKRWAASPKSFTLDFGDYQDGYYSVQTTEGEQIAQLIAGYIDIILKKKKSKDHFGLEGDEESTMLEDSVSPKKSTVLQQQYNRVGKVEHGSVALPAIMRSGASGPENFQVGSMPPAQQQITSGQMHRGHMPPLTSAQQALTGTINSSMQAVQAAQATLDDFETLPPLGQDAASKAWRKNKMDESKHEIHSQVDAITAGTASVVNLTAGDPAETDYTAVGCAVTTISSNLTEMSRGVKLLAALLEDEGGNGRPLLQAAKGLAGAVSELLRSAQPASAEPRQNLLQAAGNVGQASGELLQQIGESDTDPHFQDVLMQLAKAVASAAAALVLKAKSVAQRTEDSGLQTQVIAAATQCALSTSQLVACTKVVAPTISSPVCQEQLVEAGRLVAKAVEGCVSASQAATEDGQLLRGVGAAATAVTQALNELLQHVKAHATGAGPAGRYDQATDTILTVTENIFSSMGDAGEMVRQARILAQATSDLVNAIKADAEGESDLENSRKLLSAAKILADATAKMVEAAKGAAAHPDSEEQQQRLREAAEGLRMATNAAAQNAIKKKLVQRLEHAAKQAAASATQTIAAAQHAASAPKASAGPQPLLVQSCKAVAEQIPLLVQGVRGSQAQPDSPSAQLALIAASQSFLQPGGKMVAAAKASVPTIQDQASAMQLSQCAKNLGTALAELRTAAQKAQEACGPLEMDSALSVVQNLEKDLQEIKAAARDGKLKPLPGETMEKCTQDLGNSTKAVSSAIAKLLGEIAQGNENYAGIAARDVAGGLRSLAQAARGVAALTSDPAVQAIVLDTASDVLDKASSLIEEAKKASGHPGDPESQQRLAQVAKAVTQALNRCVSCLPGQRDVDNALRAVGDASKRLLSDSLPPSTGTFQEAQSRLNEAAAGLNQAATELVQASRGTPQDLARASGRFGQDFSTFLEAGVEMAGQAPSQEDRAQVVSNLKGISMSSSKLLLAAKALSTDPASPNLKSQLAAAARAVTDSINQLITMCTQQAPGQKECDNALRQLETVRELLENPVQPINDMSYFGCLDSVMENSKVLGEAMTGISQNAKNGNLPEFGDAIATASKALCGFTEAAAQAAYLVGVSDPNSQAGQQGLVEPTQFARANQAIQMACQSLGEPGCTQAQVLSAATIVAKHTSALCNSCRLASARTANPTAKRQFVQSAKEVANSTANLVKTIKALDGDFTEENRAQCRAATAPLLEAVDNLSAFASNPEFSSVPAQISPEGRAAMEPIVISAKTMLESAGGLIQTARALAVNPRDPPRWSVLAGHSRTVSDSIKKLITSMRDKAPGQLECETAIAALNSCLRDLDQASLAAVSQQLAPREGISQEALHTQMLTAVQEISHLIEPLASAARAEASQLGHKVSQMAQYFEPLTLAAVGAASKTLSHPQQMALLDQTKTLAESALQLLYTAKEAGGNPKQAAHTQEALEEAVQMMTEAVEDLTTTLNEAASAAGVVGGMVDSITQAINQLDEGPMGDPEGSFVDYQTTMVRTAKAIAVTVQEMVTKSNTSPEELGPLANQLTSDYGRLASQAKPAAVAAENEEIGAHIKHRVQELGHGCSALVTKAGALQCSPSDVYTKKELIECARRVSEKVSHVLAALQAGNRGTQACITAASAVSGIIADLDTTIMFATAGTLNREGAETFADHREGILKTAKVLVEDTKVLVQNAAGSQEKLAQAAQSSVATITRLADVVKLGAASLGAEDPETQVVLINAVKDVAKALGDLISATKAAAGKVGDDPAVWQLKNSAKVMVTNVTSLLKTVKAVEDEATKGTRALEATTEHIRQELAVFCSPEPPAKTSTPEDFIRMTKGITMATAKAVAAGNSCRQEDVIATANLSRRAIADMLRACKEAAFHPEVAPDVRLRALHYGRECANGYLELLDHVLLTLQKPNPDLKQQLTGHSKRVAGSVTELIQAAEAMKGTEWVDPEDPTVIAENELLGAAAAIEAAAKKLEQLKPRAKPKEADESLNFEEQILEAAKSIAAATSALVKAASAAQRELVAQGKVGAIPANALDDGQWSQGLISAARMVAAATNNLCEAANAAVQGHASQEKLISSAKQVAASTAQLLVACKVKADQDSEAMKRLQAAGNAVKRASDNLVKAAQKAAAFEDQENETVVVKEKMVGGIAQIIAAQEEMLRKERELEEARKKLAQIRQQQYKFLPSELRDEH

The variants in this assay derive from B1. The assay is described as follows: mitochondria pulldown (MTS assay), Western blot quantification; HEK293T cells; triplicate experiments; read off a plot.
As for chain 1 V49E, the percent of parent was ~2%.
